Experimental data from patent US20210198347A1 (Chugai, published 2021).
Substitutions are numbered along the chain they refer to. One block for each binder: values may come before it.

How the values were obtained:
[1] = molecular target: T1, recombinant human C1r CCP1-CCP2-SP-FLAG (human, UniProt P00736 307-705); assay: SPR (BIACORE T200, 37 degrees C, pH 7.4, 1.2 mM CaCl2), antibody captured by protein A/G
T1 construct: Truncated protein lacking the CUB1-EGF-CUB2 domain of C1r; also called human C1r CCP1-CCP2-SP I307-D705
T1 chain: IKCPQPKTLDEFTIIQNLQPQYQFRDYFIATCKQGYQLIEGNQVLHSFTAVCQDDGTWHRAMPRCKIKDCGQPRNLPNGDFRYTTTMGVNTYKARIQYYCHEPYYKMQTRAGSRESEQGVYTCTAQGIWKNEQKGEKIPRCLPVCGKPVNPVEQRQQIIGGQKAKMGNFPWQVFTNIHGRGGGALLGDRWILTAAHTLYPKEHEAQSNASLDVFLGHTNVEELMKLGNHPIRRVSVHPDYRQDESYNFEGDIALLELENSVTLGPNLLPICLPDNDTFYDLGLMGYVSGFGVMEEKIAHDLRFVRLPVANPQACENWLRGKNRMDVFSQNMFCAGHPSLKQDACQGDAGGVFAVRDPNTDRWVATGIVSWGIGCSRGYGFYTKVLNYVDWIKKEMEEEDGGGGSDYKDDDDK

[2] = molecular target: T2, recombinant human C1r2s2 Flag/His tetramer (human, UniProt P09871 16-688; P00736 18-705); assay: SPR displacement (37 degrees C, pH 7.4): C1r2s2 captured by anti-His, C1q 100 nM pre-bound, antibody 500 nM at 10 micro L/min; time from antibody injection until the antibody sensorgram falls below the buffer sensorgram; competitor native human C1q
T2 construct: whole entries named; also called hc1r2s2; rC1r2s2
T2 chain 1: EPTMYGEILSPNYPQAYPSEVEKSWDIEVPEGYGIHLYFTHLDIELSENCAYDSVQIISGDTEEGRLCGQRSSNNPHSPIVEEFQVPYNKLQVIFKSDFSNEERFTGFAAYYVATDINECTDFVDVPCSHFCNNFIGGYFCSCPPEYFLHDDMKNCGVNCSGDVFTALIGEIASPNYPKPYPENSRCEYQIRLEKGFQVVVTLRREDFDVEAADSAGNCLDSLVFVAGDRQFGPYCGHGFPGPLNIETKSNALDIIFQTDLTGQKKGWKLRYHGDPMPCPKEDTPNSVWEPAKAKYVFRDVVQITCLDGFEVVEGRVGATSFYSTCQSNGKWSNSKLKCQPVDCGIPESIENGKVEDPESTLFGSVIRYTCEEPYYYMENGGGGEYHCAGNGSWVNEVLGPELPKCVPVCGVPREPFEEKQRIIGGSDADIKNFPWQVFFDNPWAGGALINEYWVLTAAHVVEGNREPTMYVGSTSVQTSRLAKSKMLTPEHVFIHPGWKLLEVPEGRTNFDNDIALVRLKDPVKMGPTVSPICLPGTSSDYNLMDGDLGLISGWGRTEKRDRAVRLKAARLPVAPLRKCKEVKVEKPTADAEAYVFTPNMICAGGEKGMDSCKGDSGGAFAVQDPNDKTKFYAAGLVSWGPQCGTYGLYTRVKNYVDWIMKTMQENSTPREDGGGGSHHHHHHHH
T2 chain 2: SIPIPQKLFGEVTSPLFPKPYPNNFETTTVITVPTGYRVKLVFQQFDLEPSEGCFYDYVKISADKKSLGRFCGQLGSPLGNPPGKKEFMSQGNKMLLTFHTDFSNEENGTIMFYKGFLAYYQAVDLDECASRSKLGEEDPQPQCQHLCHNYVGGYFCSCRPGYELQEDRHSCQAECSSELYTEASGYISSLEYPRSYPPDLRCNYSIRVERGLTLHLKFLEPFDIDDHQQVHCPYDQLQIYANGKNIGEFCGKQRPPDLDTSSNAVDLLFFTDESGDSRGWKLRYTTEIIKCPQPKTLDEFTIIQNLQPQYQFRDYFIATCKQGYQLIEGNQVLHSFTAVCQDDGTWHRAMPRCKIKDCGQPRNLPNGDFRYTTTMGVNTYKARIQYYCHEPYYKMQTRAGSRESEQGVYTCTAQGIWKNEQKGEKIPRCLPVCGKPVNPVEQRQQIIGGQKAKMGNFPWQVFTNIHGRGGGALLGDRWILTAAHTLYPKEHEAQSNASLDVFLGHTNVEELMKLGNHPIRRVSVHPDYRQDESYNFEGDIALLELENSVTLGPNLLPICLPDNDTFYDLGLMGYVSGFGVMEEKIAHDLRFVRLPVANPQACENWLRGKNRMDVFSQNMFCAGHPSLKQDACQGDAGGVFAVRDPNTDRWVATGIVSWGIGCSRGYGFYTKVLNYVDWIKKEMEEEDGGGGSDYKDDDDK
Experimental: An anti-His antibody (GE-Healthcare) is immobilized onto all flow cells of a CM4 sensor chip using an amine coupling kit (GE Healthcare). The antibodies, recombinant human C1r2s2 Flag/His tetramer and native human C1q (Comptech A099) are prepared in pH 7.4 buffer (20 mM ACES, 150 mM NaCl, 1.2 mM CaCl₂, 1 mg/mL BSA (IgG-free), 1 mg/mL CMD, 0.05% Tween 20, 0.005% NaN₃, pH 7.4). Recombinant human C1r2s2 Flag/His tetramer is first captured onto the sensor surface by the anti-His antibody (“hc1r2s2”). The capture levels are aimed at 200 resonance unit (RU). Native human C1q is injected at 100 nM to have a capture of 200 RU (“hc1q”), followed by antibody injection at 500 nM at 10 micro L/min for 1200 sec immediately. The sensor surface is regenerated each cycle with 10 mM Glycine-HCl (pH 1.5). For antibodies with the C1q displacement function, the response unit of Sensorgram 2 (in the presence of C1r2s2, C1q, and antibody) is lower than the response unit in Sensorgram 1 (in the presence of C1r2s2, C1q, and buffer, but in the absence of antibody) after the time point where Sensorgrams 1 and 2 cross (“time point of crossover”).
The time point of crossover is identified by subtraction of the buffer response (Sensorgram 1) from the antibody (Ab) response (Sensorgram 2), and referring to the time point when the differential value changes from positive to negative (Table 5).

- binding result [1]: no binding (tested: 50 nM)
- Time point of crossover (post-injection) [2]: 432 s
B1: COR0212bb-SG1148 (antibody, human IgG1, kappa, V domains shown)
VH: QEQLKESGGGLVTPGGTLTLTCTASGFSLSSYDMSWVRQAPGKGLDWIGIINTGGSAYYATWAKGRFTISKTSTTVDLKITSPTTEDTATYFCGRKINDAFDPWGPGTLVTVSS
VL: AQVLTQTPFSVSAAVGGTVTINCQASESISSNLAWYQQKPGQPPKLLIYDASDLASGVPSRFKGSGSGKQFTLTISGVQCDDAATYFCQHGWIYDTIDSNCFGGGTKVEIKR
notes: Anti-C1r antibody

- binding result [1]: no binding (tested: 50 nM)
- Time point of crossover (post-injection) [2]: 197 s
B2: COR0208cc-SG1148 (antibody, human IgG1, kappa, V domains shown)
VH: QSVEESGGRLVTPGTPLTLTCTVSGFSLSNYYMNWVRQAPGKGLEWIGIIASDDNTWYASWAKGRFTISKTSTTVDLKITSPTTEDTATYFCARDLDVGYGSGWYDLWGQGTLVTVSS
VL: AAVLTQTPSPVSVAVGGTVTINCQASQSVYNNNYLAWYQQEPGHRPKLLIYRASKLASGVPSRFSGSGSGTQFTLTISGVQCDDAATYYCLGGYDDFTDTTFGGGTKVEIKR
notes: Anti-C1r antibody; also called COR208; COR208cc(-SG1148)

- binding result [1]: no binding (tested: 50 nM)
- Time point of crossover (post-injection) [2]: 613 s
B3: COR0011bb-SG1148 (antibody, human IgG1, kappa, V domains shown)
VH: QSLEESGGRLVTPGTPLTLTCTASGFTFSGYYMCWVRQTPGKGLEYIGIIASSGNTYYANWAKGRFTISKTSSTTVDLKMTSLTTEDTATYFCAKPESDYVNGMGLWGPGTLVTVSS
VL: DIVMTQTPASVSDPVGGTVTIKCQASQSIYNLLSWYQQKPGQRPKLLIYDASKLASGVPSRFKGSGYGTDFTLTISDLGCADAATYYCQSNYGYSRTDDTFFYGFGGGTKVEIKR
notes: Anti-C1r antibody

- binding result [1]: no binding (tested: 50 nM)
- Time point of crossover (post-injection) [2]: 85 s
B4: COR0067ff-SG1148 (antibody, human IgG1, kappa, V domains shown)
VH: QSLEESGGGLVQPEGSLTLTCKASGIDFSSNAMCWVRQAPGKGLEWIGCIYTGSTTIWYASWAKGRFTISKTSSTTVTLQLNSLTVADTATYFCARRDSSSGYAFKLWGPGTLVTVSS
VL: DIVMTQTPSSVSAAVGGTVTIKCQASENIYSNLAWYQQKSGQPPNLLIYGASTLESGVPSRFKGSGSGTEFTLTISDLECADAAIYYCQCTYDDSSTFGGGTKVEIKR
notes: Anti-C1r antibody

- binding result [1]: no binding (tested: 50 nM)
- Time point of crossover (post-injection) [2]: 101 s
B5: COR0338gg-SG1148 (antibody, human IgG1, kappa, V domains shown)
VH: B4 VH with G48A, S61T, D98A
VL: B4 VL with I2V, S9F, N28S, S40P, A81D
notes: Anti-C1r antibody

- binding result [1]: no binding (tested: 50 nM)
- Time point of crossover (post-injection) [2]: 216 s
B6: COR0205gg-SG1148 (antibody, human IgG1, kappa, V domains shown)
VH: QSLEESGGGLFKPTDTLTLTCTVSGFSLSSNAMSWVRQAPGKGLEYIGIIYLTGVTYYATWAKGRFTISKTSTTVDLKITSPTTEDTATYFCAGGEFSLWGPGTLVTVSS
VL: DIIMTQTPASVEAAVGGTVTIKCQASQGIDNYFSWHQQKPGQPPKLLIYKASTLASGVSSRFKGSGSGTEFTLTISDLECDDAATYYCQCTYGYNINDNYGNAFGGGTKVEIKR
notes: Anti-C1r antibody; also called COR205gg(-SG1148)

- binding result [1]: no binding (tested: 50 nM)
- Time point of crossover (post-injection) [2]: 218 s
B7: COR0278bb-SG1148 (antibody, human IgG1, kappa, V domains shown)
VH: QSLEESGGRLVTPGTPLTLTCTASGFSLSSYDMTWVRQAPGKGLEWIGIIYTLGSAYYASWAKGRFTISRTSTTVDLKMTSPTTEDTATYFCARGGDSYGAVDTAFDLWGPGTLVTVSS
VL: AQVLTQTPSPVSAAVGGTVTISCQSSPSVYSNYLSWYQQKPGQPPKLLIYRASRLASGVPSRFKGSGSGTQFTLTISEVQCDDAATYYCQGYFGNGINAFGGGTKVEIKR
notes: Anti-C1r antibody

- binding result [1]: no binding (tested: 50 nM)
- Time point of crossover (post-injection) [2]: 235 s
B8: COR0058bb-SG1148 (antibody, human IgG1, kappa, V domains shown)
VH: QSVEESGGRLVTPGTPLTLTCTASGFDISNYNMQWVRQSPGKGLEWIGIIWSGGYTDYANWAKGRFTISATSTTVDLKSTSPTTEDTATYFCARQGANFGDYTVDLWGPGTLVTVSS
VL: AYDMTQTPASVEVAVGGTVTIKCQASQSIRSSLAWYQQKPGQRPKLLIYRASTLASGVSSRFKGSGSGTQFTLTISGVECADAATYYCQQGYSNINVDNTFGGGTKVEIKR
notes: Anti-C1r antibody
